Patent publication US20220185901A1 (Bayer, published 2022)

What was measured:
[1] = molecular target: ALK-1/BMPR-2 receptor pair on PathHunter U2OS ALK-1/BMPR-2 dimerization cells (DiscoverX 93-0962C3) (UniProt P37023 22-503; Q13873 27-1038); assay: cell-based or functional assay
[2] = molecular target: T1, human ALK-1-Fc (TPP-11726) (human); assay: ELISA: human ALK-1-Fc coated at 2 µg/ml, TPP-14719 titrated, detected with anti-human IgG2 (Fc specific) then anti-mouse IgG-HRP; readout Relative Fluorescence Units
T1 construct: Used for panning, screening and SPR; also called hALK-1-Fc
Experimental: (§1) Antigens human ALK-1-Fc and human ALK-2-Fc were coated at 2 μg/ml and binding of TPP-14696 and TPP-14719 was detected by anti-human IgG2 (Fc specific) antibody (Sigma 19513) followed by anti-mouse IgG (whole molecule)—HRP (Sigma A9044, 1:40000).
(§2) In order to determine the selectivity for the ALK-1/BMPR-2 receptor complex compared to the ALK-2/BMPR-2 receptor, the specificity of the agonistic antibodies has been evaluated by ELISA (FIG. 9). The antigens human ALK-1-Fc and human ALK-2-Fc were coated at 2 μg/ml and binding of TPP-14696 and TPP-14719 was detected by anti-human IgG2 (Fc specific) antibody (Sigma 19513) followed by anti-mouse IgG (whole molecule)—HRP (Sigma A9044, 1:40000).

[3] = molecular target: T2, hActivin RIA/ALK-2 Fc Chimera (TPP-17233) (human, UniProt Q04771 23-123); assay: ELISA: human ALK-2-Fc coated at 2 µg/ml, TPP-14719 titrated, detected with anti-human IgG2 (Fc specific) then anti-mouse IgG-HRP; readout Relative Fluorescence Units
T2 construct: also called human ALK-2-Fc
T2 sequence: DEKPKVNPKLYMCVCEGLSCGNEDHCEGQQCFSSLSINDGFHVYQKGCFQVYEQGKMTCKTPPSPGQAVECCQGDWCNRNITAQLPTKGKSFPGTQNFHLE
Experimental: as §1, §2

T1 sequence (chain, as listed by the source limits assumed): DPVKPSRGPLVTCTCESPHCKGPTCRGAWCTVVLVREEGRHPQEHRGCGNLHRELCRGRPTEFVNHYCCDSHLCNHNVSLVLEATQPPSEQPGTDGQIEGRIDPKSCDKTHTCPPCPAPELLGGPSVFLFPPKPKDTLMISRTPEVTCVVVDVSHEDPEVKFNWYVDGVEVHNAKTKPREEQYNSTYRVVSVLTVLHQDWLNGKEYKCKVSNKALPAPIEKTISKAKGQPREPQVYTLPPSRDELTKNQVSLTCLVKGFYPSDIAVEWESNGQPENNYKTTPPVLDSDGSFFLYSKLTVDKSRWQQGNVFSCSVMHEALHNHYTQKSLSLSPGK
Sequence of ALK-1/BMPR-2 receptor pair on PathHunter U2OS ALK-1/BMPR-2 dimerization cells (DiscoverX 93-0962C3) (P37023 22-503, chain 1 of 2): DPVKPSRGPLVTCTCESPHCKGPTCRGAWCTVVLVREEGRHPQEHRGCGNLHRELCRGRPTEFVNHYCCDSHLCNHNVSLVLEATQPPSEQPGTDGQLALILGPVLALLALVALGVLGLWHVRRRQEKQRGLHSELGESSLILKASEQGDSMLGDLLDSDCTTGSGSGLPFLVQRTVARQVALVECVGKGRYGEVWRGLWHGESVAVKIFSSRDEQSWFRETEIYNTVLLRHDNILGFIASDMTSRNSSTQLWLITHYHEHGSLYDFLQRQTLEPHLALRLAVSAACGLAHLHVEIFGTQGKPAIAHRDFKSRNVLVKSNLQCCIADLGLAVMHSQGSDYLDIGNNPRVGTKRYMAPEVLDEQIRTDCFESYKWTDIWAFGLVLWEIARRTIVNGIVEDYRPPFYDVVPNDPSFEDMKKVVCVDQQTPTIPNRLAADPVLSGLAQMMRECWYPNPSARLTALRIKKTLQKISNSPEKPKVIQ
Sequence of ALK-1/BMPR-2 receptor pair on PathHunter U2OS ALK-1/BMPR-2 dimerization cells (DiscoverX 93-0962C3) (Q13873 27-1038, chain 2 of 2): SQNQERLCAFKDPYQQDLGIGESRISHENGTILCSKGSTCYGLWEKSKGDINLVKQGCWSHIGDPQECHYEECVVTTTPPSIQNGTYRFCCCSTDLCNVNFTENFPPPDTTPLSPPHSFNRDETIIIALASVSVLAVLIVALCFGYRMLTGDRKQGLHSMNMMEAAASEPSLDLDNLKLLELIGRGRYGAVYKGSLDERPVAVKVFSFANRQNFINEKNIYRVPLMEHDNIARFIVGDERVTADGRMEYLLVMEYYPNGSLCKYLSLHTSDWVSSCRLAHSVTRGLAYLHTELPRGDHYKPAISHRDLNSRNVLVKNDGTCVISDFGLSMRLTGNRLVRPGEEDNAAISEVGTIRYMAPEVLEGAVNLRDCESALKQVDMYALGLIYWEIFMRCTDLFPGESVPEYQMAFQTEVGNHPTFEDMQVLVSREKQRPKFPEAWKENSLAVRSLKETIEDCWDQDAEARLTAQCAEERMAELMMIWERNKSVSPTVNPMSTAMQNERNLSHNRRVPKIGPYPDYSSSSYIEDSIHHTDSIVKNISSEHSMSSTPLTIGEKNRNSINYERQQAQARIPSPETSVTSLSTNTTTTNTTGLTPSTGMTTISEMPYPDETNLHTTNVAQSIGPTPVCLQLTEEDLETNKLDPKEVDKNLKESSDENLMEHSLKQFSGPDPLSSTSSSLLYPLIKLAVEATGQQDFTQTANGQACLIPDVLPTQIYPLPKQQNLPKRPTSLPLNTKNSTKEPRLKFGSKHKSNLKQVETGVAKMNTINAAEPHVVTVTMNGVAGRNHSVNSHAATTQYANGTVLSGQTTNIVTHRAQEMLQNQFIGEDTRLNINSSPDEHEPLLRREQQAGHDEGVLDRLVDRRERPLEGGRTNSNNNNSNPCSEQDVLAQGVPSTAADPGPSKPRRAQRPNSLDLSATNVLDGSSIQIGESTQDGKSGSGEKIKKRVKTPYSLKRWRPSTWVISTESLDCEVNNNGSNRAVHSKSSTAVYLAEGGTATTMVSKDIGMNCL

B1: TPP-14719 (13660-13469-scFv-kih-IgG2_Fc) (bispecific antibody)
chain 1: EVQLLESGGGLVQPGGSLRLSCAASGFTFSSYAMSWVRQAPGKGLEWVANINQDGSEKNYVDSMRGRFTISRDNSKNTLYLQMNSLRAEDTAVYYCAREFDYWGQGTLVTVTSSGGGGSGGGGSGGGGSQSVLAQPPSASGTPGQRVTISCSGSSSNIGSNYVYWYQQLPGTAPKLLIYGNNKRPSGVPDRFSGSKSGTSASLAISGLRSEDEADYYCAAWDDSLNGRVFGGGTKLTVLGGGGSGGGGSGGGGSGVECPPCPAPPVAGPSVFLFPPKPKDTLMISRTPEVTCVVVDVSHEDPEVQFNWYVDGVEVHNAKTKPREEQFNSTFRVVSVLTVVHQDWLNGKEYKCKVSNKGLPAPIEKTISKTKGQPREPQVYTLPPCREEMTKNQVSLWCLVKGFYPSDIAVEWESNGQPENNYKTTPPMLDSDGSFFLYSKLTVDKSRWQQGNVFSCSVMHEALHNHYTQKSLSLSPG
chain 2: EVQLLESGGGLVQPGGSLRLSCAASGFTFSDYYMTWIRQAPGKGLEWVSSISGGSTYYADSRKGRFTISRDNSENTLYLQMNSLRAEDTAVYYCARDFGVAGWFGQYGMDVWGQGTLVTVSSGGGGSGGGGSGGGGSQSVLTQPPSASGTPGQRVTISCTGSSSNIGAGYDVHWYQQLPGTAPKLLIYRSNQRPSGVPDRFSGSKSGTSASLAISGLRSEDEADYYCSSYAGNYNLVFGGGTKLTVLGGGGSGGGGSGGGGSGVECPPCPAPPVAGPSVFLFPPKPKDTLMISRTPEVTCVVVDVSHEDPEVQFNWYVDGVEVHNAKTKPREEQFNSTFRVVSVLTVVHQDWLNGKEYKCKVSNKGLPAPIEKTISKTKGQPREPQVCTLPPSREEMTKNQVSLSCAVKGFYPSDIAVEWESNGQPENNYKTTPPMLDSDGSFFLVSKLTVDKSRWQQGNVFSCSVMHEALHNHYTQKSLSLSPG
notes: scFv-Fc (kih) heterodimer with IgG2 Fc; also called BsAB TPP-14719
**Q.** Which results are given for B1?
**A.** Agonistic activity in PathHunter U2OS cells EC50 [1]: 6.9 nM; EC50 [2]: 0.747 nM; binding result [3]: no binding
